Consider nine molecules from US20160272683A1 (Novo Nordisk, published 2016).

Broadly, the IC50 is the midpoint of a concentration-inhibition curve.

This assay addresses T1, human amylin receptor (human calcitonin receptor + human RAMP3) (human) (UniProt P30988).
T1 sequence (looked up) 1: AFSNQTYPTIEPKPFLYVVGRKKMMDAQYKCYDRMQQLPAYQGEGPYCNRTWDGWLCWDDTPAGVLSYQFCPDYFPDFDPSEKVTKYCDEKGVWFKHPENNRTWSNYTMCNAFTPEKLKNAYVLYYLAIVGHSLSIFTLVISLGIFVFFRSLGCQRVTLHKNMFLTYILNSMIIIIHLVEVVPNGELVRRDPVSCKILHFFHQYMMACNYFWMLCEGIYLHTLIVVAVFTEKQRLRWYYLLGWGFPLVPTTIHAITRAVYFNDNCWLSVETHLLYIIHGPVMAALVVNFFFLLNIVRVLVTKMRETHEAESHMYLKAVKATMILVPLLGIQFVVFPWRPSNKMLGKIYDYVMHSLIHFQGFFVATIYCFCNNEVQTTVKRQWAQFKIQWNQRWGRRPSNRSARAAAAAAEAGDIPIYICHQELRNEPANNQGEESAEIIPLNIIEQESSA
T1 sequence (looked up) 2: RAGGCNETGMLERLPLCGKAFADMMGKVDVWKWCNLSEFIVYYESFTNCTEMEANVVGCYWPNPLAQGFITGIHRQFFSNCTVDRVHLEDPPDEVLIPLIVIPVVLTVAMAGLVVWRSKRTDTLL
Put plainly: whole-cell competition vs 125I-rat amylin (Assay Va).

* marks the point of attachment. C18 diacid = O=C(O)CCCCCCCCCCCCCCCCC(=O)*; C12 diacid = O=C(O)CCCCCCCCCCC(=O)*; Palmitoyl = CCCCCCCCCCCCCCCC(=O)*

B1: [N-terminal(C18 diacid), 20I]mimylin (peptide)
peptide: {C18 diacid}-EASELSTAALGRLSAELHEIATLPRTETGPESP-NH2
SMILES: CC[C@H](C)[C@H](NC(=O)[C@H](CCC(=O)O)NC(=O)[C@H](Cc1c[nH]cn1)NC(=O)[C@H](CC(C)C)NC(=O)[C@H](CCC(=O)O)NC(=O)[C@H](C)NC(=O)[C@H](CO)NC(=O)[C@H](CC(C)C)NC(=O)[C@H](CCCNC(=N)N)NC(=O)CNC(=O)[C@H](CC(C)C)NC(=O)[C@H](C)NC(=O)[C@H](C)NC(=O)[C@@H](NC(=O)[C@H](CO)NC(=O)[C@H](CC(C)C)NC(=O)[C@H](CCC(=O)O)NC(=O)[C@H](CO)NC(=O)[C@H](C)NC(=O)[C@H](CCC(=O)O)NC(=O)CCCCCCCCCCCCCCCCC(=O)O)[C@@H](C)O)C(=O)N[C@@H](C)C(=O)N[C@H](C(=O)N[C@@H](CC(C)C)C(=O)N1CCC[C@H]1C(=O)N[C@@H](CCCNC(=N)N)C(=O)N[C@H](C(=O)N[C@@H](CCC(=O)O)C(=O)N[C@H](C(=O)NCC(=O)N1CCC[C@H]1C(=O)N[C@@H](CCC(=O)O)C(=O)N[C@@H](CO)C(=O)N1CCC[C@H]1C(N)=O)[C@@H](C)O)[C@@H](C)O)[C@@H](C)O
In the case of B1, the IC50 stood at 0.511 nM.

B2: [N-terminal(C18 diacid), 18A]mimylin (peptide)
peptide: {C18 diacid}-EASELSTAALGRLSAELAELATLPRTETGPESP-NH2
SMILES: CC(C)C[C@H](NC(=O)[C@H](C)NC(=O)[C@H](C)NC(=O)[C@@H](NC(=O)[C@H](CO)NC(=O)[C@H](CC(C)C)NC(=O)[C@H](CCC(=O)O)NC(=O)[C@H](CO)NC(=O)[C@H](C)NC(=O)[C@H](CCC(=O)O)NC(=O)CCCCCCCCCCCCCCCCC(=O)O)[C@@H](C)O)C(=O)NCC(=O)N[C@@H](CCCNC(=N)N)C(=O)N[C@@H](CC(C)C)C(=O)N[C@@H](CO)C(=O)N[C@@H](C)C(=O)N[C@@H](CCC(=O)O)C(=O)N[C@@H](CC(C)C)C(=O)N[C@@H](C)C(=O)N[C@@H](CCC(=O)O)C(=O)N[C@@H](CC(C)C)C(=O)N[C@@H](C)C(=O)N[C@H](C(=O)N[C@@H](CC(C)C)C(=O)N1CCC[C@H]1C(=O)N[C@@H](CCCNC(=N)N)C(=O)N[C@H](C(=O)N[C@@H](CCC(=O)O)C(=O)N[C@H](C(=O)NCC(=O)N1CCC[C@H]1C(=O)N[C@@H](CCC(=O)O)C(=O)N[C@@H](CO)C(=O)N1CCC[C@H]1C(N)=O)[C@@H](C)O)[C@@H](C)O)[C@@H](C)O
B2: the IC50 turned out to be 0.329 nM.

B3: [N-terminal(C18 diacid), 5I]mimylin (peptide)
peptide: {C18 diacid}-EASEISTAALGRLSAELHELATLPRTETGPESP-NH2
SMILES: CC[C@H](C)[C@H](NC(=O)[C@H](CCC(=O)O)NC(=O)[C@H](CO)NC(=O)[C@H](C)NC(=O)[C@H](CCC(=O)O)NC(=O)CCCCCCCCCCCCCCCCC(=O)O)C(=O)N[C@@H](CO)C(=O)N[C@H](C(=O)N[C@@H](C)C(=O)N[C@@H](C)C(=O)N[C@@H](CC(C)C)C(=O)NCC(=O)N[C@@H](CCCNC(=N)N)C(=O)N[C@@H](CC(C)C)C(=O)N[C@@H](CO)C(=O)N[C@@H](C)C(=O)N[C@@H](CCC(=O)O)C(=O)N[C@@H](CC(C)C)C(=O)N[C@@H](Cc1c[nH]cn1)C(=O)N[C@@H](CCC(=O)O)C(=O)N[C@@H](CC(C)C)C(=O)N[C@@H](C)C(=O)N[C@H](C(=O)N[C@@H](CC(C)C)C(=O)N1CCC[C@H]1C(=O)N[C@@H](CCCNC(=N)N)C(=O)N[C@H](C(=O)N[C@@H](CCC(=O)O)C(=O)N[C@H](C(=O)NCC(=O)N1CCC[C@H]1C(=O)N[C@@H](CCC(=O)O)C(=O)N[C@@H](CO)C(=O)N1CCC[C@H]1C(N)=O)[C@@H](C)O)[C@@H](C)O)[C@@H](C)O)[C@@H](C)O
Consider B3, for which the 50% inhibitory concentration (IC50) was 0.429 nM.

B4: [N-terminal(C18 diacid), 9I]mimylin (peptide)
peptide: {C18 diacid}-EASELSTAILGRLSAELHELATLPRTETGPESP-NH2
SMILES: CC[C@H](C)[C@H](NC(=O)[C@H](C)NC(=O)[C@@H](NC(=O)[C@H](CO)NC(=O)[C@H](CC(C)C)NC(=O)[C@H](CCC(=O)O)NC(=O)[C@H](CO)NC(=O)[C@H](C)NC(=O)[C@H](CCC(=O)O)NC(=O)CCCCCCCCCCCCCCCCC(=O)O)[C@@H](C)O)C(=O)N[C@@H](CC(C)C)C(=O)NCC(=O)N[C@@H](CCCNC(=N)N)C(=O)N[C@@H](CC(C)C)C(=O)N[C@@H](CO)C(=O)N[C@@H](C)C(=O)N[C@@H](CCC(=O)O)C(=O)N[C@@H](CC(C)C)C(=O)N[C@@H](Cc1c[nH]cn1)C(=O)N[C@@H](CCC(=O)O)C(=O)N[C@@H](CC(C)C)C(=O)N[C@@H](C)C(=O)N[C@H](C(=O)N[C@@H](CC(C)C)C(=O)N1CCC[C@H]1C(=O)N[C@@H](CCCNC(=N)N)C(=O)N[C@H](C(=O)N[C@@H](CCC(=O)O)C(=O)N[C@H](C(=O)NCC(=O)N1CCC[C@H]1C(=O)N[C@@H](CCC(=O)O)C(=O)N[C@@H](CO)C(=O)N1CCC[C@H]1C(N)=O)[C@@H](C)O)[C@@H](C)O)[C@@H](C)O
With B4, the half-inhibitory concentration (IC50) came out at 0.417 nM.

B5: [N-terminal(C18 diacid), 17I]mimylin (peptide)
peptide: {C18 diacid}-EASELSTAALGRLSAEIHELATLPRTETGPESP-NH2
SMILES: CC[C@H](C)[C@H](NC(=O)[C@H](CCC(=O)O)NC(=O)[C@H](C)NC(=O)[C@H](CO)NC(=O)[C@H](CC(C)C)NC(=O)[C@H](CCCNC(=N)N)NC(=O)CNC(=O)[C@H](CC(C)C)NC(=O)[C@H](C)NC(=O)[C@H](C)NC(=O)[C@@H](NC(=O)[C@H](CO)NC(=O)[C@H](CC(C)C)NC(=O)[C@H](CCC(=O)O)NC(=O)[C@H](CO)NC(=O)[C@H](C)NC(=O)[C@H](CCC(=O)O)NC(=O)CCCCCCCCCCCCCCCCC(=O)O)[C@@H](C)O)C(=O)N[C@@H](Cc1c[nH]cn1)C(=O)N[C@@H](CCC(=O)O)C(=O)N[C@@H](CC(C)C)C(=O)N[C@@H](C)C(=O)N[C@H](C(=O)N[C@@H](CC(C)C)C(=O)N1CCC[C@H]1C(=O)N[C@@H](CCCNC(=N)N)C(=O)N[C@H](C(=O)N[C@@H](CCC(=O)O)C(=O)N[C@H](C(=O)NCC(=O)N1CCC[C@H]1C(=O)N[C@@H](CCC(=O)O)C(=O)N[C@@H](CO)C(=O)N1CCC[C@H]1C(N)=O)[C@@H](C)O)[C@@H](C)O)[C@@H](C)O
In the case of B5, the IC50 was 1.48 nM. For the molecule Palmitoyl-EASELSTAALGRLSAELHELATLPRTETGPESP-NH2 [[N-terminal(C16)]mimylin], the IC50 was determined as 0.435 nM.

B6: [N-terminal(C18 diacid), 9V]mimylin (peptide)
peptide: {C18 diacid}-EASELSTAVLGRLSAELHELATLPRTETGPESP-NH2
SMILES: CC(C)C[C@H](NC(=O)[C@H](CCC(=O)O)NC(=O)[C@H](Cc1c[nH]cn1)NC(=O)[C@H](CC(C)C)NC(=O)[C@H](CCC(=O)O)NC(=O)[C@H](C)NC(=O)[C@H](CO)NC(=O)[C@H](CC(C)C)NC(=O)[C@H](CCCNC(=N)N)NC(=O)CNC(=O)[C@H](CC(C)C)NC(=O)[C@@H](NC(=O)[C@H](C)NC(=O)[C@@H](NC(=O)[C@H](CO)NC(=O)[C@H](CC(C)C)NC(=O)[C@H](CCC(=O)O)NC(=O)[C@H](CO)NC(=O)[C@H](C)NC(=O)[C@H](CCC(=O)O)NC(=O)CCCCCCCCCCCCCCCCC(=O)O)[C@@H](C)O)C(C)C)C(=O)N[C@@H](C)C(=O)N[C@H](C(=O)N[C@@H](CC(C)C)C(=O)N1CCC[C@H]1C(=O)N[C@@H](CCCNC(=N)N)C(=O)N[C@H](C(=O)N[C@@H](CCC(=O)O)C(=O)N[C@H](C(=O)NCC(=O)N1CCC[C@H]1C(=O)N[C@@H](CCC(=O)O)C(=O)N[C@@H](CO)C(=O)N1CCC[C@H]1C(N)=O)[C@@H](C)O)[C@@H](C)O)[C@@H](C)O
As to B6, the IC50 turned out to be 0.796 nM. To {C12 diacid}-EASELSTAALGRLSAELHELATLPRTETGPESP-NH2 [[N-terminal(C12 diacid)]mimylin] belongs 8.97 nM.

B7: [N-terminal(C18 diacid), 8L]mimylin (peptide)
peptide: {C18 diacid}-EASELSTLALGRLSAELHELATLPRTETGPESP-NH2
SMILES: CC(C)C[C@H](NC(=O)[C@H](C)NC(=O)[C@H](CC(C)C)NC(=O)[C@@H](NC(=O)[C@H](CO)NC(=O)[C@H](CC(C)C)NC(=O)[C@H](CCC(=O)O)NC(=O)[C@H](CO)NC(=O)[C@H](C)NC(=O)[C@H](CCC(=O)O)NC(=O)CCCCCCCCCCCCCCCCC(=O)O)[C@@H](C)O)C(=O)NCC(=O)N[C@@H](CCCNC(=N)N)C(=O)N[C@@H](CC(C)C)C(=O)N[C@@H](CO)C(=O)N[C@@H](C)C(=O)N[C@@H](CCC(=O)O)C(=O)N[C@@H](CC(C)C)C(=O)N[C@@H](Cc1c[nH]cn1)C(=O)N[C@@H](CCC(=O)O)C(=O)N[C@@H](CC(C)C)C(=O)N[C@@H](C)C(=O)N[C@H](C(=O)N[C@@H](CC(C)C)C(=O)N1CCC[C@H]1C(=O)N[C@@H](CCCNC(=N)N)C(=O)N[C@H](C(=O)N[C@@H](CCC(=O)O)C(=O)N[C@H](C(=O)NCC(=O)N1CCC[C@H]1C(=O)N[C@@H](CCC(=O)O)C(=O)N[C@@H](CO)C(=O)N1CCC[C@H]1C(N)=O)[C@@H](C)O)[C@@H](C)O)[C@@H](C)O
In the case of B7, the IC50 is 0.275 nM.
